Results from article PMC6555819, “Comprehensive study of nuclear receptor DNA binding provides a revised framework for understanding receptor specificity”.
Where a chain is given by its changes, count along the chain named.

B1: NRC3_random_hg19_29_o1 (dsDNA)
DNA 1: GCGGTTGAATGCCCAGATAGTACACACACCAAGCTTGCGATTGACAGCGTAGAATGAAGG
DNA 2: CCTTCATTCTACGCTGTCAATCGCAAGCTTGGTGTGTGTACTATCTGGGCATTCAACCGC
B2: NRC3_wobSeed98_DR4_A28C_o1 (dsDNA)
DNA 1: GCACTAGTTGGTCAGCTGAGGTCACACCCAATTCGGGCGATTGACAGCGTAGAATGAAGG
DNA 2: CCTTCATTCTACGCTGTCAATCGCCCGAATTGGGTGTGACCTCAGCTGACCAACTAGTGC
B3: NRC3_wobSeed113_DR4_T12A_o1 (dsDNA)
DNA 1: GCATATGTAGGATAGCTGGGGTCATTCAGACTAGGCGCGATTGACAGCGTAGAATGAAGG
DNA 2: CCTTCATTCTACGCTGTCAATCGCGCCTAGTCTGAATGACCCCAGCTATCCTACATATGC
B4: NRC3_wobSeed101_DR4_C13T_o1 (dsDNA)
DNA 1: GCCCTTACGGGTTACTCCAGGTTATAGCATCGGAGTGCGATTGACAGCGTAGAATGAAGG
DNA 2: CCTTCATTCTACGCTGTCAATCGCACTCCGATGCTATAACCTGGAGTAACCCGTAAGGGC
B5: NRC3_random_hg19_484_o1 (dsDNA)
DNA 1: GCCAGCAAACTAGGAATCAAGAAACTGAGTTCTGGCGCGATTGACAGCGTAGAATGAAGG
DNA 2: CCTTCATTCTACGCTGTCAATCGCGCCAGAACTCAGTTTCTTGATTCCTAGTTTGCTGGC
B6: NRC3_wobSeed120_DR4_G16T_o1 (dsDNA)
DNA 1: GCCCGAGTAGGTTACTAGGGGGCATTCAGTGCGAATGCGATTGACAGCGTAGAATGAAGG
DNA 2: CCTTCATTCTACGCTGTCAATCGCATTCGCACTGAATGCCCCCTAGTAACCTACTCGGGC
B7: NRC3_wobSeed120_DR4_T8G_o1 (dsDNA)
DNA 1: B6 DNA 1 with T8G, T16G
DNA 2: B6 DNA 2 with A45C, A53C
B8: NRC3_wobSeed109_DR4_A16T_o1 (dsDNA)
DNA 1: GCCGTCCAAGGTCATTGGAGGTCAGTGAAGACAGATGCGATTGACAGCGTAGAATGAAGG
DNA 2: CCTTCATTCTACGCTGTCAATCGCATCTGTCTTCACTGACCTCCAATGACCTTGGACGGC
B9: NRC3_random_hg19_334_o1 (dsDNA)
DNA 1: GCTGCTGACTTGCTGGTTAGAGGGAACACATTCCCAGCGATTGACAGCGTAGAATGAAGG
DNA 2: CCTTCATTCTACGCTGTCAATCGCTGGGAATGTGTTCCCTCTAACCAGCAAGTCAGCAGC
B10: NRC3_wobSeed97_DR4_G16T_o1 (dsDNA)
DNA 1: GCCAAACTAGGTCACTAAAGGTCAAAGTCGAATGACGCGATTGACAGCGTAGAATGAAGG
DNA 2: CCTTCATTCTACGCTGTCAATCGCGTCATTCGACTTTGACCTTTAGTGACCTAGTTTGGC
B11: NRC3_random_hg19_378_o1 (dsDNA)
DNA 1: GCATCATCTTGCGTATGTTGATTGATGTCTCATGTGGCGATTGACAGCGTAGAATGAAGG
DNA 2: CCTTCATTCTACGCTGTCAATCGCCACATGAGACATCAATCAACATACGCAAGATGATGC
B12: NRC3_wobSeed116_DR4_A21T_o1 (dsDNA)
DNA 1: GCAGAATGAGGTTACCAAAGTTCAGGGAAACGCTTGGCGATTGACAGCGTAGAATGAAGG
DNA 2: CCTTCATTCTACGCTGTCAATCGCCAAGCGTTTCCCTGAACTTTGGTAACCTCATTCTGC
B13: NRC3_wobSeed73_DR3_C7A_o1 (dsDNA)
DNA 1: GCCAAAATAGGTCACAGAGGTCAAAGTCCGTGCGTAGCGATTGACAGCGTAGAATGAAGG
DNA 2: CCTTCATTCTACGCTGTCAATCGCTACGCACGGACTTTGACCTCTGTGACCTATTTTGGC
B14: NRC3_random_hg19_448_o1 (dsDNA)
DNA 1: GCAGAAGAAGACCAAAGTATTCCCTCACTGCCTATGGCGATTGACAGCGTAGAATGAAGG
DNA 2: CCTTCATTCTACGCTGTCAATCGCCATAGGCAGTGAGGGAATACTTTGGTCTTCTTCTGC
B15: NRC3_wobSeed122_DR5_C24G_o1 (dsDNA)
DNA 1: GCGCTAGTTGGTCAGTAAAAGGTGACACACCGGTCGGCGATTGACAGCGTAGAATGAAGG
DNA 2: CCTTCATTCTACGCTGTCAATCGCCGACCGGTGTGTCACCTTTTACTGACCAACTAGCGC
B16: NRC3_random_hg19_424_o1 (dsDNA)
DNA 1: GCGCCTTCTCTACAGGGCATACAGACTGACATTGAGGCGATTGACAGCGTAGAATGAAGG
DNA 2: CCTTCATTCTACGCTGTCAATCGCCTCAATGTCAGTCTGTATGCCCTGTAGAGAAGGCGC
B17: NRC3_random_hg19_50_o1 (dsDNA)
DNA 1: GCTGAAGAGTTTCTAACTCTTTGTTCTTGAATCAAAGCGATTGACAGCGTAGAATGAAGG
DNA 2: CCTTCATTCTACGCTGTCAATCGCTTTGATTCAAGAACAAAGAGTTAGAAACTCTTCAGC
B18: NRC3_wobSeed26_DR1_A14T_o1 (dsDNA)
DNA 1: GCTCTAGTTGGTCTAAGGTCACACACTCGAAATGCGGCGATTGACAGCGTAGAATGAAGG
DNA 2: CCTTCATTCTACGCTGTCAATCGCCGCATTTCGAGTGTGTGACCTTAGACCAACTAGAGC
B19: NRC3_random_hg19_124_o1 (dsDNA)
DNA 1: GCTCAGTTCCTCTGCAGCCAACCAGTCTTGGTGCCTGCGATTGACAGCGTAGAATGAAGG
DNA 2: CCTTCATTCTACGCTGTCAATCGCAGGCACCAAGACTGGTTGGCTGCAGAGGAACTGAGC
B20: NRC3_random_hg19_143_o1 (dsDNA)
DNA 1: GCCAAGAATCAGACTCTTAAGTAGATGCCTGTAGCTGCGATTGACAGCGTAGAATGAAGG
DNA 2: CCTTCATTCTACGCTGTCAATCGCAGCTACAGGCATCTACTTAAGAGTCTGATTCTTGGC
B21: NRC3_random_hg19_12_o1 (dsDNA)
DNA 1: GCTTCCAGAATCAGACAATCACTGGGCTTGAACCAGGCGATTGACAGCGTAGAATGAAGG
DNA 2: CCTTCATTCTACGCTGTCAATCGCCTGGTTCAAGCCCAGTGATTGTCTGATTCTGGAAGC

Biological target: LXRb:RXRa (Homo sapiens, UniProt P55055;P19793 full;full)
Sequence (P55055 whole entry, chain 1 of 2): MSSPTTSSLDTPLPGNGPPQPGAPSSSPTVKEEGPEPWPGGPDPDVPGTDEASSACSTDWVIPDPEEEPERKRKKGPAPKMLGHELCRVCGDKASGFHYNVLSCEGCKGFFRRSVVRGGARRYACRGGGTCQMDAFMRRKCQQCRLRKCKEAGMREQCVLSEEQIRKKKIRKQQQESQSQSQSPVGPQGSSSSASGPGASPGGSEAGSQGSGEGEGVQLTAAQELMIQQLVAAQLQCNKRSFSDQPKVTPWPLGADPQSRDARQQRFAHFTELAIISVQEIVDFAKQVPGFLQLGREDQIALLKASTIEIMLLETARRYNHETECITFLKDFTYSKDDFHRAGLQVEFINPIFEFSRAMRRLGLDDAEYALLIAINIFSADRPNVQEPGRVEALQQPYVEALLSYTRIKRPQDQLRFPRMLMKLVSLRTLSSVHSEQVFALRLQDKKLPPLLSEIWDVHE
Sequence (P19793 whole entry, chain 2 of 2): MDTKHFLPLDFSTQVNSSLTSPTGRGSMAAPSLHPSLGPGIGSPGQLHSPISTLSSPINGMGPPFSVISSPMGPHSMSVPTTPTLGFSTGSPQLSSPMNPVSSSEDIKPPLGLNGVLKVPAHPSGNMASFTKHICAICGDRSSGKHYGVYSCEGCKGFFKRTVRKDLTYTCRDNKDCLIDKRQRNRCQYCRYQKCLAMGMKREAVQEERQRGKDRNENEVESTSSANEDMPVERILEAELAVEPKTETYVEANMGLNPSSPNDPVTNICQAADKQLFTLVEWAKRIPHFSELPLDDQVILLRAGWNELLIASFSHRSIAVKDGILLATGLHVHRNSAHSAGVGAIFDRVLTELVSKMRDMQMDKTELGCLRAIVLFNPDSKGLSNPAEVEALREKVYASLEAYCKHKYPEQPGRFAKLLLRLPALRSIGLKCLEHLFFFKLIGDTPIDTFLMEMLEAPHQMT
Experiment: no ligand; PBM; 270 nM : 90 nM RXRa; PBS pH 7.4, 2% milk, 0.02% Triton X-100, 1 mM DTT, BSA, 0.4 mg/ml salmon testes DNA
Conditions: tags: His kept;His cleaved; copies: 1;1; label: surface-attached array probe
Method in brief: (§1)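 For binding z-scores, the reference was random background probes on custom Agilent 4×180K protein-binding microarrays. These arrays were incubated 1 h with ligand-free nuclear receptor dimers in PBS pH 7.4, 2% milk, 0.02% Triton X-100, 1 mM DTT, 0.2 mg/mL BSA and 0.4 mg/ml salmon testes DNA. Fluorescence was scanned after antibody detection of each partner (one per run) and regression-normalized.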

Binder | binding signal
B1 | 0.12 PBM z-score against 500 random probes
B2 | 3.3 PBM z-score against 500 random probes
B3 | 3.83 PBM z-score against 500 random probes
B4 | 6.25 PBM z-score against 500 random probes
B5 | -0.51 PBM z-score against 500 random probes
B6 | 7.83 PBM z-score against 500 random probes
B7 | 7.6 PBM z-score against 500 random probes
B8 | 7.27 PBM z-score against 500 random probes
B9 | -0.46 PBM z-score against 500 random probes
B10 | 8.55 PBM z-score against 500 random probes
B11 | -0.13 PBM z-score against 500 random probes
B12 | 6.78 PBM z-score against 500 random probes
B13 | 7.08 PBM z-score against 500 random probes

Biological target: PPARa:RXRa (Homo sapiens, UniProt Q07869;P19793 full;full)
Sequence (Q07869 whole entry, chain 1 of 2): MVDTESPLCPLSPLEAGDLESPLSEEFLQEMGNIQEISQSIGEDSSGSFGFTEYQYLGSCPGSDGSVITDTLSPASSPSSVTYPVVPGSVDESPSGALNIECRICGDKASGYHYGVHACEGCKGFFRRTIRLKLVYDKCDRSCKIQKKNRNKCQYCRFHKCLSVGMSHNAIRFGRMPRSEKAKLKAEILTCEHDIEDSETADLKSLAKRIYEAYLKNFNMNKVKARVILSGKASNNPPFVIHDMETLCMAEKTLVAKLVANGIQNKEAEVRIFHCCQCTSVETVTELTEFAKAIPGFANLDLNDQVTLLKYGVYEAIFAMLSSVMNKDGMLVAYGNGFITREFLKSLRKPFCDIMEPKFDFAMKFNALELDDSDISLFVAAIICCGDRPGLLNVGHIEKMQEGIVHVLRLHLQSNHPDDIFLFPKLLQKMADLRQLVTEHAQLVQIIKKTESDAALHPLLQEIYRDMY
Sequence (P19793 whole entry, chain 2 of 2): as the sequence (P19793 whole entry, chain 2 of 2) above
Experiment: as above
Conditions: tags: GST kept;His cleaved; copies: 1;1; label: surface-attached array probe
Method in brief: as §1

Binder | binding signal
B5 | -0.5 PBM z-score against 500 random probes
B6 | 3.42 PBM z-score against 500 random probes
B14 | -0.65 PBM z-score against 500 random probes
B13 | 6.98 PBM z-score against 500 random probes

Biological target: VDR:RXRa (Homo sapiens, UniProt P11473;P19793 full;full)
Sequence (P11473 whole entry, chain 1 of 2): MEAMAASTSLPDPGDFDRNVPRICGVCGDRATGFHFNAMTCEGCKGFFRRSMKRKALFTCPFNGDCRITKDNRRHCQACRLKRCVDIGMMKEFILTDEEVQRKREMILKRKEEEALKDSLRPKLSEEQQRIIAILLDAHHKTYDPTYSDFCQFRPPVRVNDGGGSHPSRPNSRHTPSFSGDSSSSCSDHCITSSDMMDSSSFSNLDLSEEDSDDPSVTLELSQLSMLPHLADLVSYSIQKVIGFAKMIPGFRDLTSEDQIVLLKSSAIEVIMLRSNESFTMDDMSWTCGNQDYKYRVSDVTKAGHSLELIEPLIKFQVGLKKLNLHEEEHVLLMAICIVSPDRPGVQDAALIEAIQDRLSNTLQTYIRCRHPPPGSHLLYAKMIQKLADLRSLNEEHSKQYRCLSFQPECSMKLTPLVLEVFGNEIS
Sequence (P19793 whole entry, chain 2 of 2): as the sequence (P19793 whole entry, chain 2 of 2) above
Experiment: as above
Conditions: tags: His kept;His cleaved; copies: 1;1; label: surface-attached array probe
Method in brief: as §1

Binder | binding signal
B15 | 0.14 PBM z-score against 500 random probes
B16 | -0.21 PBM z-score against 500 random probes
B17 | -0.07 PBM z-score against 500 random probes
B14 | -0.71 PBM z-score against 500 random probes
B18 | 4.12 PBM z-score against 500 random probes
B19 | -0.13 PBM z-score against 500 random probes
B20 | -0.44 PBM z-score against 500 random probes

Biological target: RARb:RXRa (Homo sapiens, UniProt P10826;P19793 full;full)
Sequence (P10826 whole entry, chain 1 of 2): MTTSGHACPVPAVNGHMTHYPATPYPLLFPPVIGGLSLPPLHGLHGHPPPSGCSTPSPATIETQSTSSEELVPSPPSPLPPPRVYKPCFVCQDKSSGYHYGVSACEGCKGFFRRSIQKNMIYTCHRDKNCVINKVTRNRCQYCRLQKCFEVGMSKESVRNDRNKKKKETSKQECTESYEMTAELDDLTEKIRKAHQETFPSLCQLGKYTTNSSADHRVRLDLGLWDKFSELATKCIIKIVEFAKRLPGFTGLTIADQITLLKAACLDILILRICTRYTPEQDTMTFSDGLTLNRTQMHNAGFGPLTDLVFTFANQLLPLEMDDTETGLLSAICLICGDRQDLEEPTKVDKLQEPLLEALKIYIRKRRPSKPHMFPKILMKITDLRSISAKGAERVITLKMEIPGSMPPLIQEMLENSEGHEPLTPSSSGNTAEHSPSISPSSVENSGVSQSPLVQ
Sequence (P19793 whole entry, chain 2 of 2): as the sequence (P19793 whole entry, chain 2 of 2) above
Experiment: as above
Conditions: tags: His kept;His cleaved; copies: 1;1; label: surface-attached array probe
Method in brief: as §1

Binder | binding signal
B1 | -0.14 PBM z-score against 500 random probes
B21 | -0.1 PBM z-score against 500 random probes
B13 | 5.84 PBM z-score against 500 random probes

Biological target: RARg:RXRa (Homo sapiens, UniProt P13631;P19793 full;full)
Sequence (P13631 whole entry, chain 1 of 2): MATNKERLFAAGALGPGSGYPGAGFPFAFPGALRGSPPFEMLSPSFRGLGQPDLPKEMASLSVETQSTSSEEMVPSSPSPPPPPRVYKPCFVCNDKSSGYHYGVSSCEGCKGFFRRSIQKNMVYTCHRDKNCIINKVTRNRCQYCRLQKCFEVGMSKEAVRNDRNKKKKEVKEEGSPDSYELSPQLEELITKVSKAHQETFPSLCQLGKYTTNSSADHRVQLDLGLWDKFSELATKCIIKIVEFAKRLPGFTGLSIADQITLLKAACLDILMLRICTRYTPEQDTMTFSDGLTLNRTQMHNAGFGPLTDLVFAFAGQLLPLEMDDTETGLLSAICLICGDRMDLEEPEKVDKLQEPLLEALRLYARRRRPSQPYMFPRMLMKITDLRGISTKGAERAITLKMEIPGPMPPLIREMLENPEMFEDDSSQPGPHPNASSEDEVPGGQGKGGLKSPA
Sequence (P19793 whole entry, chain 2 of 2): as the sequence (P19793 whole entry, chain 2 of 2) above
Experiment: as above
Conditions: tags: His kept;His cleaved; copies: 1;1; label: surface-attached array probe
Method in brief: as §1

Binder | binding signal
B11 | 0.26 PBM z-score against 500 random probes
B13 | 7.78 PBM z-score against 500 random probes
B20 | -0.43 PBM z-score against 500 random probes

Biological target: LXRa:RXRa (Homo sapiens, UniProt Q13133;P19793 full;full)
Sequence (Q13133 whole entry, chain 1 of 2): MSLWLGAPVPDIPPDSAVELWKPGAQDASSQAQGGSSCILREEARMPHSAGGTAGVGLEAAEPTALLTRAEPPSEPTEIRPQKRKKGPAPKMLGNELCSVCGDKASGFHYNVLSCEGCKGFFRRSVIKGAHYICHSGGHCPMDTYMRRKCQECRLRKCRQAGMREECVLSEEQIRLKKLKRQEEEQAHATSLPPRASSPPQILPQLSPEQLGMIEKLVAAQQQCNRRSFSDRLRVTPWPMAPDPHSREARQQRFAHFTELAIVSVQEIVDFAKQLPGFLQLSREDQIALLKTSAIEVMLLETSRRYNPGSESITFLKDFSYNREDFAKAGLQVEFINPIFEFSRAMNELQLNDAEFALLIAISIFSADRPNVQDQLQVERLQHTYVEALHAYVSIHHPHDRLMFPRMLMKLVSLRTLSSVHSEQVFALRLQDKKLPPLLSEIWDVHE
Sequence (P19793 whole entry, chain 2 of 2): as the sequence (P19793 whole entry, chain 2 of 2) above
Experiment: as above
Conditions: tags: His kept;His cleaved; copies: 1;1; label: surface-attached array probe
Method in brief: as §1

Binder | binding signal
B15 | 0.28 PBM z-score against 500 random probes
B1 | -0.08 PBM z-score against 500 random probes
B2 | 3.12 PBM z-score against 500 random probes
B16 | 0.42 PBM z-score against 500 random probes
B3 | 3.41 PBM z-score against 500 random probes
B4 | 8.39 PBM z-score against 500 random probes
B5 | -0.57 PBM z-score against 500 random probes
B6 | 8.51 PBM z-score against 500 random probes
B7 | 8.32 PBM z-score against 500 random probes
B8 | 8.57 PBM z-score against 500 random probes
B17 | -0.55 PBM z-score against 500 random probes
B9 | -0.52 PBM z-score against 500 random probes
B14 | -0.67 PBM z-score against 500 random probes
B18 | 4.12 PBM z-score against 500 random probes
B21 | -0.13 PBM z-score against 500 random probes
B19 | 0.33 PBM z-score against 500 random probes
B10 | 9.5 PBM z-score against 500 random probes
B11 | -0.34 PBM z-score against 500 random probes
B12 | 8.81 PBM z-score against 500 random probes
B13 | 7.23 PBM z-score against 500 random probes
B20 | -0.64 PBM z-score against 500 random probes

Biological target: FXR:RXRa (Homo sapiens, UniProt Q96RI1;P19793 full;full)
Sequence (Q96RI1 whole entry, chain 1 of 2): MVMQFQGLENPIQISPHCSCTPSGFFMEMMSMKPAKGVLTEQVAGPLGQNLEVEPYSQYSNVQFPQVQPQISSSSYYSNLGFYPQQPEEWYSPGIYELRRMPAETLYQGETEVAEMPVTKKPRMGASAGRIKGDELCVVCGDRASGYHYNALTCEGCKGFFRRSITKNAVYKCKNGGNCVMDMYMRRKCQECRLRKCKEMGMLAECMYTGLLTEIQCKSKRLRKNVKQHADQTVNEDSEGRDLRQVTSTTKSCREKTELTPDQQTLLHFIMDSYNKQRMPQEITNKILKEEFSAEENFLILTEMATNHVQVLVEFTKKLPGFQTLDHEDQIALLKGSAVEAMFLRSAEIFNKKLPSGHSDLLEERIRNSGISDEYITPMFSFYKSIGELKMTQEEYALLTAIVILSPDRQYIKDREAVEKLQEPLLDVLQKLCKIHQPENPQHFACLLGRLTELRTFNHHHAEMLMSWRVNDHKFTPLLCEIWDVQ
Sequence (P19793 whole entry, chain 2 of 2): as the sequence (P19793 whole entry, chain 2 of 2) above
Experiment: as above
Conditions: tags: His kept;His cleaved; copies: 1;1; label: surface-attached array probe
Method in brief: as §1

Binder | binding signal
B21 | 0.11 PBM z-score against 500 random probes
B13 | 8.03 PBM z-score against 500 random probes

Biological target: RXRa (Homo sapiens, UniProt P19793)
Sequence (P19793 whole entry): as the sequence (P19793 whole entry, chain 2 of 2) above
Experiment: no ligand; PBM; 180 nM; PBS pH 7.4, 2% milk, 0.02% Triton X-100, 1 mM DTT, BSA, 0.4 mg/ml salmon testes DNA
Conditions: tags: His cleaved; chain copies: 2; label: surface-attached array probe

Binder | binding signal
B5 | -0.22 PBM z-score against 500 random probes
B21 | -0.01 PBM z-score against 500 random probes
